Reference: PMC10460399 (Nature Communications, 2023)
“And” between values parts separate entries of the source, which are not always exact repeats. Identical values can stand only once.

B1: DmDcr-2 mutant (D1217N/D1476N, DmDcr-2^DDNN) (enzyme, Drosophila melanogaster, UniProt A1ZAW0 1-1722, looked up)
chain: MEDVEIKPRGYQLRLVDHLTKSNGIVYLPTGSGKTFVAILVLKRFSQDFDKPIESGGKRALFMCNTVELARQQAMAVRRCTNFKVGFYVGEQGVDDWTRGMWSDEIKKNQVLVGTAQVFLDMVTQTYVALSSLSVVIIDECHHGTGHHPFREFMRLFTIANQTKLPRVVGLTGVLIKGNEITNVATKLKELEITYRGNIITVSDTKEMENVMLYATKPTEVMVSFPHQEQVLTVTRLISAEIEKFYVSLDLMNIGVQPIRRSKSLQCLRDPSKKSFVKQLFNDFLYQMKEYGIYAASIAIISLIVEFDIKRRQAETLSVKLMHRTALTLCEKIRHLLVQKLQDMTYDDDDDNVNTEEVIMNFSTPKVQRFLMSLKVSFADKDPKDICCLVFVERRYTCKCIYGLLLNYIQSTPELRNVLTPQFMVGRNNISPDFESVLERKWQKSAIQQFRDGNANLMICSSVLEEGIDVQACNHVFILDPVKTFNMYVQSKGRARTTEAKFVLFTADKEREKTIQQIYQYRKAHNDIAEYLKDRVLEKTEPELYEIKGHFQDDIDPFTNENGAVLLPNNALAILHRYCQTIPTDAFGFVIPWFHVLQEDERDRIFGVSAKGKHVISINMPVNCMLRDTIYSDPMDNVKTAKISAAFKACKVLYSLGELNERFVPKTLKERVASIADVHFEHWNKYGDSVTATVNKADKSKDRTYKTECPLEFYDALPRVGEICYAYEIFLEPQFESCEYTEHMYLNLQTPRNYAILLRNKLPRLAEMPLFSNQGKLHVRVANAPLEVIIQNSEQLELLHQFHGMVFRDILKIWHPFFVLDRRSKENSYLVVPLILGAGEQKCFDWELMTNFRRLPQSHGSNVQQREQQPAPRPEDFEGKIVTQWYANYDKPMLVTKVHRELTPLSYMEKNQQDKTYYEFTMSKYGNRIGDVVHKDKFMIEVRDLTEQLTFYVHNRGKFNAKSKAKMKVILIPELCFNFNFPGDLWLKLIFLPSILNRMYFLLHAEALRKRFNTYLNLHLLPFNGTDYMPRPLEIDYSLKRNVDPLGNVIPTEDIEEPKSLLEPMPTKSIEASVANLEITEFENPWQKYMEPVDLSRNLLSTYPVELDYYYHFSVGNVCEMNEMDFEDKEYWAKNQFHMPTGNIYGNRTPAKTNANVPALMPSKPTVRGKVKPLLILQKTVSKEHITPAEQGEFLAAITASSAADVFDMERLEILGNSFLKLSATLYLASKYSDWNEGTLTEVKSKLVSNRNLLFCLIDADIPKTLNTIQFTPRYTWLPPGISLPHNVLALWRENPEFAKIIGPHNLRDLALGDEESLVKGNCSDINYNRFVEGCRANGQSFYAGADFSSEVNFCVGLVTIPNKVIADTLEALLGVIVKNYGLQHAFKMLEYFKICRADIDKPLTQLLNLELGGKKMRANVNTTEIDGFLINHYYLEKNLGYTFKDRRYLLQALTHPSYPTNRITGSYQELEFIGNAILDFLISAYIFENNTKMNPGALTDLRSALVNNTTLACICVRHRLHFFILAENAKLSEIISKFVNFQESQGHRVTNYVRILLEEADVQPTPLDLDDELDMTELPHANKCISQEAEKGVPPKGEFNMSTNVDVPKALGDVLEALIAAVYLDCRDLQRTWEVIFNLFEPELQEFTRKVPINHIRQLVEHKHAKPVFSSPIVEGETVMVSCQFTCMEKTIKVYGFGSNKDQAKLSAAKHALQQLSKCDA
notes: Dicer-2 (DmDcr-2) of Drosophila melanogaster, full length, with D1217N/D1476N (no dicing activity, helicase activity kept); also called Dicer-2; source: sf9 cells (Bac-to-Bac baculovirus), co-expressed with R2D2, purified (Ni-NTA, Hitrap Q, 2nd Ni-NTA, SEC)
B2: Loqs-PD (Loquacious isoform D), full length (natural protein, Drosophila melanogaster, UniProt Q9VJY9-4 1-359, looked up)
chain: MDQENFHGSSLPQQLQNLHIQPQQASPNPVQTGFAPRRHYNNLVGLGNGNAVSGSPVKGAPLGQRHVKLKKEKISAQVAQLSQPGQLQLSDVGDPALAGGSGLQGGVGLMGVILPSDEALKFVSETDANGLAMKTPVSILQELLSRRGITPGYELVQIEGAIHEPTFRFRVSFKDKDTPFTAMGAGRSKKEAKHAAARALIDKLIGAQLPESPSSSAGPSVTGLTVAGSGGDGNANATGGGDASDKTVGNPIGWLQEMCMQRRWPPPSYETETEVGLPHERLFTIACSILNYREMGKGKSKKIAKRLAAHRMWMRLQETPIDSGKISDSICGELEGEVSIIQDIDRYEQVSKDFEFIKI
notes: Only a small segment of the C-terminus is seen in the maps; also called Loqs isoform D; source: Escherichia coli BL21 (DE3), purified (Ni-NTA, ULP1 cleavage, second Ni-NTA, SEC)
B3: 19-bp dsRNA (siRNA duplex) (dsRNA)
RNA 1: GAGACUUGGGCAAUGUGAAGU
RNA 2: GUCACAUUGCCCAAGUCUCUU
B4: 50-bp dsRNA (dsRNA)
RNA 1: GAGACUUGGGCAAUGUGACUGCUGAUCAGCAGUCACAUUGCCCAAGUCUCUU
RNA 2: B4 RNA 1

What was measured:
[1] = biological target: the molecule itself; experiment: cryo-EM structure; DmDcr-2^DDNN/R2D2/Loqs-PD complex with 50-bp dsRNA 1:1, 25 °C for 2 h, diluted to 1 uM in SEC buffer with 5 mM ATP and 5 mM MgCl2
[2] = biological target: B1; experiment: as above; settings: both partners purified
[3] = biological target: T1, DmDcr-2^DDNN/R2D2 complex (Drosophila melanogaster, UniProt A1ZAW0 1-1722; Q9VLW8 1-311, D1217N | D1476N); experiment: SEC; purified DmDcr-2^DDNN/R2D2 and Loqs-PD mixed at a molar ratio of 1:1.5, on ice for 1 h; Superose 6 10/300 Increase in SEC buffer (100 mM NaCl, 20 mM Tris-HCl pH 8.0, 1 mM DTT); settings: both partners purified
T1 construct: Dicer-2 (DmDcr-2) of Drosophila melanogaster, full length, with D1217N/D1476N; as m1; R2D2 of Drosophila, full length; as m2; Complex formed beforehand, to which Loqs-PD was added; also called DmDcr-2/R2D2; source: sf9 cells (Bac-to-Bac baculovirus), co-expressed, purified (Ni-NTA, Hitrap Q, 2nd Ni-NTA, SEC)

[4] = biological target: T2, DmDcr-2 DDNN;R2D2;Loqs-PD (Drosophila melanogaster;Drosophila …, UniProt A1ZAW0;Q9VLW8;Q9VJY9-4 1-1722;1-311;1-359, D1217N;D1476N||); experiment: cryo-EM; ATP, Mg2+; Trimer state (EMD-34708); Cryo-EM sample buffer not in material; protein SEC buffer 100 mM NaCl, 20 mM Tris-HCl pH 8.0, 1 mM DTT; oligomers formed with ATP and Mg2+; settings: protein: recombinant;recombinant;recombinant; tags: purified by Ni-NTA
[5] = biological target: T2, DmDcr-2 DDNN;R2D2;Loqs-PD; experiment: cryo-EM; ATP, Mg2+; Dimer state; Cryo-EM sample buffer not in material; protein SEC buffer 100 mM NaCl, 20 mM Tris-HCl pH 8.0, 1 mM DTT; oligomers formed with ATP and Mg2+; settings: protein: recombinant;recombinant;recombinant; tags: purified by Ni-NTA

B1
stoichiometry N [1]: 2 and 3

B2
binding result [2]: binds
binding result [3]: binds

B3
binding result [4]: binds

B4
binding result [5]: binds
